This note sets out measurements from US20260049331A1, “Sense-and-Response of Proteins, Peptides, and Small Molecules Using Ligand-Induced Dimerization Activating RNA Editing (LIDAR)” (The Board of Trustees of the Leland Stanford Junior …, priority 2022, published 2026).

Assay [1] has as its target GPCR fused to MCP (inverted GPCR LIDAR design; GPCRs not named). Kind of assay: cell-based or functional assay.
Assay [2] relates to AVPR-LIDAR and CX3CR1-LIDAR. Kind of assay: orthogonal ChaCha-like LIDAR receptors (AVPR-LIDAR and CX3CR1-LIDAR) in the same cell. The format is cell-based, human. The settings on record: MCP/MS2 reporter outputs EGFP, PCP/PP7 reporter outputs mTagBFP; FIG. 10K. The protocol: To maintain a fast design-build-test cycle, unless specified, all prototyping experiments were performed by transiently co-transfecting receptor-encoding DNA plasmids into human embryonic kidney (HEK) 293 cells.
To program more complex multi-cellular behaviors, as well as to integrate multiple inputs for targeted cell therapies, it is often required to have receptors that process orthogonal signals in the same cell. In our most commonly used configuration (Tango-like LIDAR), the β-arrestin2-RBP fusion protein is recruited to all GPCRs without discrimination. This means that with two different GPCR-LIDAR receptors (e.g., AVPR-based LIDAR and CX3CR1-based LIDAR) the system would only be able to produce one output, triggered by either ligand. In the inverted version, the ADAR2dd and the RBP are interchanged to obtain the GPCR-RBP and β-arrestin2-ADAR2dd fusion proteins, analogous to TANGO vs. ChaCha receptors (25) (FIG. 10J). Because a separate RBP is needed for each receptor. MCP was used for a reporter RNA harboring MS2 loops and outputting EGFP and PP7 bacteriophage coat protein (PCP) for a reporter RNA harboring PP7 loops and outputting mTagBFP.

A further assay concerns the target T1, CCR6-based LIDAR (Homo sapiens, UniProt P51684).
T1 construct: ADAR2dd (deaminase domain of ADAR2); expressed in transfected cells; host or cells: HEK293 (receiver cells)
Kind of assay: CCR6-based LIDAR sensing of secreted or membrane-bound CCL20 from sender cells. Format: cell-based. The settings on record: conditioned media from CCL20-secreting cells or co-culture with cells displaying CCL20; FIG. 10A-D. The text has this:
Inspired by examples from synNotch (19, 20) and given the advantage that LIDAR could potentially sense both membrane-bound and soluble ligands. LIDAR was used to drive cell-cell interactions to ultimately program complex multicellular behaviors (21-23). CCR6-based LIDAR senses its ligand, CCL20 (FIG. 10A-D), when the receiver cells are either exposed to conditioned media from CCL20-secreting cells (FIG. 10A, B) or co-cultured with cells displaying CCL20 on their surface (FIG. 10C, D). […] Receiver cells surrounding cells that produce secreted ligands were plated (FIG. 10E), a response gradient was observed going from the sender cells outwards (FIG. 10F). In contrast, when the receiver cells with sender cells producing a membrane-bound ligand were tested, the response pattern is limited to the sender-receiver interface (FIG. 10G, H). The images were quantified to extract the LIDAR output intensity profiles in response to membrane-bound and secreted ligands.

In assay [3] the test system is CCR6-based LIDAR outputting iCASP9 (cLSM01-C5 cells). Kind of assay: LIDAR-induced cell apoptosis with iCASP9 output in stable cell line cLSM01-C5. The format is cell-based. As to conditions: only when both CCL20 and AP1903 are present; flow cytometry and microscopy; FIG. 9F. The protocol: In terms of generalizing functional outputs, LIDAR was used to output iCASP9 as a ligand-dependent cell death controller (13) (FIG. 9E), as iCASP9 induces apoptosis in response to the dimerizing molecule AP1903. A monoclonal cell line was generated (cLSM01-C5) expressing all three components of CCR6-based LIDAR by stable PiggyBac integrations. […] Another functional output was then tested, tobacco etch virus (TEV) protease, given our expertise (14) and its broad use (15) in synthetic circuits. A LIDAR-produced TEV protease rescues a fluorescent protein linked via a TEV protease cleavage site to a degron (FIG. 9G). Its dose response curve resembles that of the corresponding LIDAR that directly outputs EGFP (FIG. 9H and FIG. 13F). […] This indicates the potential for LIDAR to be implemented in more complex circuits (16).
Background: In flow cytometry, cells or beads pass a laser one at a time.

T1 sequence (P51684 whole entry, the tested form may be a part): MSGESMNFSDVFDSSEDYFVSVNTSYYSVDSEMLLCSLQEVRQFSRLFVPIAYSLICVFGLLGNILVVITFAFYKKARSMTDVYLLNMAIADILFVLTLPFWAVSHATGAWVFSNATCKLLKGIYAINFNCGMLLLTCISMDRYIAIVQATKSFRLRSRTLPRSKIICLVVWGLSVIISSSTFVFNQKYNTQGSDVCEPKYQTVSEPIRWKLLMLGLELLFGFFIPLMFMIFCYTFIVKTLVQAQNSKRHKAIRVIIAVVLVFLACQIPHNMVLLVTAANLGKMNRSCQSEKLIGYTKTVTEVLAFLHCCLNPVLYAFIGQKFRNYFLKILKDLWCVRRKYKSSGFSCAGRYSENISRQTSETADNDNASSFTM
T1 sequence (P32121 whole entry partner, the tested form may be a part): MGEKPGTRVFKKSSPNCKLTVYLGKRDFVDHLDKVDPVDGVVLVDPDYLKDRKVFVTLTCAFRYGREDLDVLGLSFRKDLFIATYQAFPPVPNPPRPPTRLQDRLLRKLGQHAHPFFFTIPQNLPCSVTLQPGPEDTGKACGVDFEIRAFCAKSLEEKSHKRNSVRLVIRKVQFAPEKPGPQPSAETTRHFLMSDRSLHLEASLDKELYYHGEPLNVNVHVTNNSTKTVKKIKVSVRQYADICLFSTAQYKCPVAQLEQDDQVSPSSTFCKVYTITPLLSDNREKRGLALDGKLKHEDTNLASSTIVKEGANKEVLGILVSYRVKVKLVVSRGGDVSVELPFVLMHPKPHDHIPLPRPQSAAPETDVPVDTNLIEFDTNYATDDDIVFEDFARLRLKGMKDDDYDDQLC

With “β-arrestin2-ADAR2dd (inverted / ChaCha-like LIDAR) (from UniProt P32121 1-409; P78563 299-701)”, the fold activation of inverted GPCR LIDAR in assay [1] was < 17 ×.
For the molecule `NC(=O)CC[C@@H]1NC(=O)[C@H](Cc2ccccc2)NC(=O)[C@H](Cc2ccc(O)cc2)NC(=O)[C@@H](N)CSSC[C@@H](C(=O)N2CCC[C@H]2C(=O)N[C@@H](CCCN=C(N)N)C(=O)NCC(N)=O)NC(=O)[C@H](CC(N)=O)NC1=O` [AVP, Arginine vasopressin, reference compound], the “output produced by each ligand in the same cell” value in assay [2] is listed as “EGFP exclusively”.
Turning to CCL20: chemokine, GPCR ligand of CCR6, in the assay with CCR6-based LIDAR, the “ligand sensing by receiver cells” value is “senses”. Moreover, in assay [3], the cell death result was “Substantial cell death”.
On to `CC[C@H](C(=O)N1CCCC[C@H]1C(=O)O[C@H](CCc1ccc(OC)c(OC)c1)c1cccc(OCC(=O)NCCNC(=O)COc2cccc([C@@H](CCc3ccc(OC)c(OC)c3)OC(=O)[C@@H]3CCCCN3C(=O)[C@@H](CC)c3cc(OC)c(OC)c(OC)c3)c2)c1)c1cc(OC)c(OC)c(OC)c1` [AP1903, reference compound], for which, in assay [3], the cell death entry is “Substantial cell death”.

B1: CX3CL1: ligand of CX3CR1-LIDAR (protein)
chain: QHHGVTKCNITCSKMTSKIPVALLIHYQQNQASCGKRAIILETRQHRLFCADPKEQWVKDAMQHLDRQAAALTRNG
In the case of B1, the “output produced by each ligand in the same cell” value in assay [2] is listed as “mTagBFP exclusively”.
